In the supplement of paper PMC10567573:

B1: DYRK1B (parent)
chain: KKVLNHGYDDDNHDYIVRSGERWL
B2: ETS1 (parent)
chain: FSEPSFITESYQTLHPISSEELLS

Variants of: B1
Assay: protein stability index of a GFP-peptide fusion (GPS, HEK-293T) (PSI 1-6); higher = more stable
Conditions: c terminus: a fixed tail appended
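Note: lentivirally expressed fusions sorted by FACS into six bins by GFP to DsRed ratio, PSI derived from sequencing read proportions per bin multiplied by bin number.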

Protein stability index: each site, then its substitutions
G7: S 3.21, D 3.4, V 2.77, M 3.07, F 2.4, H 2.84, R 3.31, C 2.27, I 2.22, Y 2.93
K1: P 3.43, T 2.92, N 2.95, A 3.11, W 2.07, G 3.5, L 2.48, M 3.09, Y 2.38
L24: C 3.46, Q 3.69, M 3.49, T 3.51, D 4.08, V 3.8, Y 3.03, E 4.07, G 3.81, N 3.75
D9: T 2.75, G 2.51, L 2.39, C 2.96, A 2.89, I 2.52, P 3.12, F 2.61, W 1.53, N 2.63, R 2.74
N12: D 3.4, A 2.7, T 2.62, Q 3.48, F 2.35, M 2.29, K 3.05, S 3.01, E 3.36
Y15: T 2.95, N 3.88, S 3.32, H 3.42, F 3.09, I 3.5, W 3.07, Q 4.05, M 3.27, E 4.02
V17: W 2.56, P 3.86, E 4.03, R 3.53, C 2.6, M 2.98, A 3.11, G 3.36, K 3.4
N5: C 2.84, Y 2.33, H 2.89, L 3.01, E 3.46, M 2.8, P 3.39, G 3.42, V 3.22, K 2.97, S 2.67
K2: F 2.52, V 2.86, E 3.7, L 2.12, I 2.23, H 3.19, P 3.46, S 2.97, D 4.31
W23: Y 3.64, S 4.47, G 4.07, I 3.9, E 4.46, H 3.99, K 4.3, M 3.93, N 4.56, F 3.62, R 3.6
R18: Q 3.78, M 2.39, A 3, P 3.24, T 2.92, S 3.1, K 3.74, G 3.45
L4: P 3.36, H 3.27, Y 2.99, S 3.27, C 3.33, Q 4.12, M 2.88, N 3.76, E 3.56, D 4.28, A 3.68, G 3.87
V3: P 2.94, K 3.08, Y 2.73, D 3.74, I 2.73, C 2.41, A 3.45, W 2.05, T 3, G 3.33, S 3.47, F 2.61, L 2.88, E 3.48, N 3.15
G20: V 2.03, T 2.83, W 2.31, F 2.04, Q 3.34, E 3.65, A 2.73, C 2.95, S 3.01, L 1.88, N 3.29
H13: P 3.57, G 3.27, M 2.58, N 3.07, S 3.42, R 3.77, Q 3.68, I 2.79, K 3.59
I16: E 4.17, P 3.55, T 3.47, C 3.48, K 3.49, F 3.09, R 3.49, M 3.32, V 3.86
D14: P 2.71, R 2.86, S 2.82, V 2.13, L 1.67, M 2.58, F 2.21, Q 2.35
H6: T 3.12, W 2.01, M 2.34, L 2.51, I 3.01, Q 3.32, Y 3.12, V 2.84, R 2.91, F 2.4
D10: E 2.95, C 2.52, G 3.46, T 3, I 2.3, N 2.48, R 2.82, M 2.96, S 2.72, W 2.04
S19: H 3.91, K 3.2, I 2.07, P 2.51, Y 2.53, D 3.64, V 2.98, M 2.6, W 2.21, E 3.25, L 2.42, Q 3.46, C 2.59
E21: F 2.16, M 2.57, D 2.86, N 2.67, T 2.7, P 2.61, Y 2.32, C 2.19, K 3.1, Q 3.05, V 2.28, I 2.16, R 2.83
D11: P 2.58, W 2.02, T 2.75, N 2.89, V 2.54, F 2.15, H 3.08, G 2.85, Q 2.83, S 3.03, M 2.59, L 2.25
Y8: S 3.66, V 3.58, D 3.87, M 3.48, E 3.71, P 3.24, F 3.46, L 3.36, H 4.27, C 3.24, A 3.82
R22: E 3.58, H 3.13, S 3.35, T 2.83, Y 2.52, F 1.91, L 2.25

Variants of: B2
Assay: as above
Conditions: c terminus: a fixed tail appended

Protein stability index: each site, then its substitutions
E20: T 2.08, R 2.08, Y 1.72, S 2.11, M 2.28, V 2.04, N 1.7, W 1.61, Q 2.12, L 1.95, P 1.73
E21: N 1.85, L 1.93, S 1.52, D 1.74, W 1.99, F 1.99, K 1.84, I 1.81, P 1.94, Q 2.06, T 2, Y 1.49, A 1.53, R 1.96, M 2.1, G 1.91, H 2.24, V 2.2, C 1.79
L23: N 2.31, K 2.83, Y 1.78, S 2.07, F 2.38, E 2.44, R 2.16, M 2.03, T 2.29, Q 2.59, V 2.06, I 1.52, G 1.98, P 2.14, C 1.97, W 1.81, D 2.47, A 2.57, H 2.61
S24: Q 2.16, A 2.02, E 2.54, V 1.62, R 1.86, M 1.97, F 1.65, I 1.85, L 1.69, G 1.86, N 1.79, H 1.91, W 1.56, K 2.49, P 2.04, C 1.5, T 1.99, D 2.15, Y 1.79
L22: Q 2.19, R 2.19, Y 2.04, A 2.04, G 2.03, M 2, V 2.31, C 1.97, K 2.55, F 2.01, P 2.42, I 2.2, H 2.71, E 2.67, S 2, D 2.16, T 1.97, W 1.62, N 2.33
